Tests used:
GNMT D70A mutant = GNMT D70A mutant (UniProt Q14749); assay: SEC; size-exclusion chromatography of wild type GNMT and catalytic-centre mutants; data not shown
GNMT L210S mutant = GNMT L210S mutant (UniProt Q14749); assay: SEC; size-exclusion chromatography on Sephacryl S300 of the folate-site mutants
GNMT M218D mutant = GNMT M218D mutant (UniProt Q14749); assay: as above
GNMT W30F mutant = GNMT W30F mutant (UniProt Q14749); assay: SEC; size-exclusion chromatography of wild type GNMT and catalytic-centre mutants; data not shown
GNMT Y6E mutant = GNMT Y6E mutant (UniProt Q14749); assay: SEC; size-exclusion chromatography on Sephacryl S300 of the folate-site mutants
GNMT Y244A mutant = GNMT Y244A mutant (UniProt Q14749); assay: SEC; size-exclusion chromatography of wild type GNMT and catalytic-centre mutants; data not shown
[1] = target: Glycine N-methyltransferase, wild type (UniProt Q14749); assay: as above

Question: For “GNMT D70A mutant (from UniProt Q14749 1-295) (enzyme)”, which stoichiometry N (GNMT D70A mutant) is on record?
Answer: 4

Question: Which percent of the protein as dimer (GNMT L210S mutant) does the source give for “GNMT L210S mutant (from UniProt Q14749 1-295) (enzyme)” here?
Answer: 50%

Question: And the percent of the protein as monomer (GNMT L210S mutant)?
Answer: 10%

Question: And the percent of the protein as tetramer (GNMT L210S mutant)?
Answer: 40%

Question: With “GNMT M218D mutant (from UniProt Q14749 1-295) (enzyme)” as the substance, how does the stoichiometry N (GNMT M218D mutant) read?
Answer: 4

Question: With “GNMT W30F mutant (from UniProt Q14749 1-295) (enzyme)” as the substance, how does the stoichiometry N (GNMT W30F mutant) read?
Answer: 4

Question: How did the stoichiometry N (GNMT Y6E mutant) turn out when “GNMT Y6E mutant (from UniProt Q14749 1-295) (enzyme)” was run?
Answer: 4

Question: How did the stoichiometry N (GNMT Y244A mutant) turn out when “GNMT Y244A mutant (from UniProt Q14749 1-295) (enzyme)” was run?
Answer: 4

Question: With “Glycine N-methyltransferase, wild type (from UniProt Q14749 1-295) (enzyme)” as the substance, how does the stoichiometry N [1] read?
Answer: 4

From publication PMC3728347
